Three molecules from US20100291106A1 (Novartis, published 2010) can be followed below.

Substitutions are numbered along the chain they refer to.

As a reminder, the Kd is a measure of binding affinity in units of concentration. Usually koff stands for the first-order rate constant of dissociation. One may read the kon as a measure of how fast the partners come together. The term EC50 denotes the concentration that produces a half-maximal response. By IC50 is commonly meant the concentration that gives 50% inhibition.

In assay [1] the target is T1, human complement C3b protein (human, UniProt P01024 23-667; P01024 749-1663). The assay can be described thus: cell-based or functional assay.
T1 sequence (P01024 23-667 P314L, chain 1 of 2): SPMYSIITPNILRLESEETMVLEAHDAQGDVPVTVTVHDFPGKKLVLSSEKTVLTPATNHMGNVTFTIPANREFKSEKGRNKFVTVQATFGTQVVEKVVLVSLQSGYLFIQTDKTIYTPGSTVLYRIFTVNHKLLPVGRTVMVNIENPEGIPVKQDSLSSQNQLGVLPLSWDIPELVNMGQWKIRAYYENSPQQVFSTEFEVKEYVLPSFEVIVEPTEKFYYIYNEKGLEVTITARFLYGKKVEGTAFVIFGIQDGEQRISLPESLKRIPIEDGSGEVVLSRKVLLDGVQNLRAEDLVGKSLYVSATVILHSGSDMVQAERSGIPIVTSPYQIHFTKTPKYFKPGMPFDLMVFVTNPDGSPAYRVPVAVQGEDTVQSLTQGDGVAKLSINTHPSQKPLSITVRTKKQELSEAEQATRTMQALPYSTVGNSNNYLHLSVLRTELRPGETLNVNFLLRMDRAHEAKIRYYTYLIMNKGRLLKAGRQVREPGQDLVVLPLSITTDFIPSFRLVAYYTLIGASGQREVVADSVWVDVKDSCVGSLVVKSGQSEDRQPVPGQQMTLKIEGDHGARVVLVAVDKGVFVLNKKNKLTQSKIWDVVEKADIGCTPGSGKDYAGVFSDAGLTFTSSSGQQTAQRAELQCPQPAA
T1 sequence (P01024 749-1663, chain 2 of 2): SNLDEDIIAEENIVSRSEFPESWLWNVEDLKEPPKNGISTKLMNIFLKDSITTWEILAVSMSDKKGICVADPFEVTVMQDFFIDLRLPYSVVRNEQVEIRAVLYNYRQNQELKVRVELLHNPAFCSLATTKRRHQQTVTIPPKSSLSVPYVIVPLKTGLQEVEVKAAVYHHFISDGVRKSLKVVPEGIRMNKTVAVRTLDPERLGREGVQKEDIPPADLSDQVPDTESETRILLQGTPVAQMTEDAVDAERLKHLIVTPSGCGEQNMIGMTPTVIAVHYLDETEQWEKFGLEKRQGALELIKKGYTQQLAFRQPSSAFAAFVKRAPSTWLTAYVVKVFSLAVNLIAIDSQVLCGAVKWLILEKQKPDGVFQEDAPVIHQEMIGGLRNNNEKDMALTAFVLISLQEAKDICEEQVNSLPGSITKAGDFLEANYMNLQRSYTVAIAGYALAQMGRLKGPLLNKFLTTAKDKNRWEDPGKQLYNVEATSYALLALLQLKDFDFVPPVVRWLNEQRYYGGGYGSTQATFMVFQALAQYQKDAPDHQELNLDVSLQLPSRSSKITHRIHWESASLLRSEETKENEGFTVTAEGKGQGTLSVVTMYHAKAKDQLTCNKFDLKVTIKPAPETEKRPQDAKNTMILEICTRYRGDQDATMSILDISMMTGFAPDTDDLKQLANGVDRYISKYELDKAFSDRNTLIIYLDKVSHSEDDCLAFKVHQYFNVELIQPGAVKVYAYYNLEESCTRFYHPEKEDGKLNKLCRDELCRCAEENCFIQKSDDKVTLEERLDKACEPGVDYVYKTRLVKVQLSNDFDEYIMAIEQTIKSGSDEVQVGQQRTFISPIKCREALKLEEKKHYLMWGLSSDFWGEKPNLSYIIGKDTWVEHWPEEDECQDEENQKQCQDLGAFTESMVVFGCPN
Assay [2] addresses T1, human complement C3b protein. Briefly: ELISA, C3b or C3 captured by anti-C3d antibody. As for the experimental part: The C3b antibodies were examined to determine whether they were selective for binding to C3b relative to the C3b precursor C3. Briefly, binding selectivity for C3b was determined by performing the following steps. Coat Maxisorp plate Nunc (442404) with anti-C3d rabbit monoclonal (abcam 17453) at 2 μg/ml in Carbonate Buffer at 100 μl/well. Seal plates and incubate at 4° C. overnight. Aspirate plates and wash 3 times with PBS/0.5% Tween 20. Block plates with Diluent (PBS, 4% BSA Fraction V (Fisher ICN16006980), 0.1% Tween 20 (Sigma P1379), 0.1% Triton X-100 (Sigma P234729)) and incubate for 2 h at room temperature or overnight at 4° C. Then wash plates once with PBS/0.5% Tween 20. Dilute purified C3b (complement technologies A114 lot 21) and C3 (complement technologies A113c) at 1 μg/ml in diluent and plate 100 μl per well. Incubate for 1 h at room temperature. Then wash 3 times with PBS/0.5% Tween 20.
Dilute Fabs at 100 nM and subsequent dilutions (or higher concentration) in diluent and plate 100 μl per well. Incubate at room temperature for 1 h. Wash plates 3 times with PBS/0.5% Tween 20. Add 100 μl/well of anti-Histidine-HRP monoclonal detection antibody at 1:400 in diluent and incubate at room temperature for 1 h. Then wash 4 times with PBS/0.5% Tween 20. Add 100 μl of TMB substrate (Pierce 34028) and incubate at room temperature for up to 5 min. Add 50 μl of Stop solution (2N Sulfuric Acid) to each well and read plate at 450 nm and correct for plastic reading at 570 nm.
On the technique in general: ELISA stands for enzyme-linked immunosorbent assay.

For assay [3], the target named is T2, human C3d (human, UniProt P01024 1002-1303).
T2 construct: domain: C3d
T2 sequence (P01024 1002-1303 limits assumed): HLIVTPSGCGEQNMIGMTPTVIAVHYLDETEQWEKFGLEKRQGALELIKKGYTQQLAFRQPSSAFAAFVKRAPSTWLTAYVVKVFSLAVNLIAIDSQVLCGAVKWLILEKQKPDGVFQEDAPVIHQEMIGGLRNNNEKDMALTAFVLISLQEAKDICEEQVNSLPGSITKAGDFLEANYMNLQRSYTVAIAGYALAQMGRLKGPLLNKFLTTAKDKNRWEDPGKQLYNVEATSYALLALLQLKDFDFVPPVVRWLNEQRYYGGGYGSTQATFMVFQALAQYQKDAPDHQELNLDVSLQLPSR
Briefly: C3d binding ELISA, IgG titrated from about 0.006 to 100 nM.

Assay [4] has as its target T1, human complement C3b protein. The assay can be described thus: SPR (Biacore T100), C3b captured by anti-C3d antibody, IgG as analyte, 1:1 model.
Assay [5] concerns the target T3, cynomolgus complement C3b protein (cynomolgus monkey (Macaca fascicularis)).
T3 construct: also called cyno C3b; cynoC3b
The description is as above.

Assay [6] concerns the target T1, human complement C3b protein. Briefly: AlphaScreen bead proximity, C3b-Acceptor beads pre-incubated with antibody, then biotinylated fH and SA-Donor beads; blocked ligand: fH [C]. As for the experimental part:
(§1) In brief, purified C3b and fP were conjugated to unconjugated acceptor or donor beads (PerkinElmer) using AminoLink Reductant (Pierce) during a 48 h incubation at room temperature. Beads were quenched using Carboxymethoxylamine Hemihydrochloride (Aldrich), and purified by centrifugation at 13000 rpm and three washes with 0.1M TBST. Purified fB(D24G/N260D) and fH were biotinylated during a 30 min incubation with 20-fold molar excess of NHS-Chromogenic-biotin (Pierce) at room temperature, and purified using Zeba 0.5 ml desalting columns (Pierce).
(§2) For C3b-C3b and C3b-fP proximity, Fabs or IgGs respectively were pre-incubated with C3b-Acceptor beads (20 μg/ml) for 60 min at room temperature. C3b-Donor beads or fP-Donor beads (20 μg/ml) were then added, and the plate was incubated overnight at room temperature before reading. For C3b-fB and C3b-fH proximity, antibodies were pre-incubated with C3b-Acceptor beads (20 μg/ml) for 60 minutes at room temperature. Biotinylated fB(D24G/N260D) or fH were then added, and incubated for 60 minutes at room temperature. SA-Donor beads were then added (20 μg/ml) and the plate was incubated overnight at room temperature before reading. Plates were read on the BMG Pherastar (ex=680, em=520-620).
In general terms: Bead proximity is the source of the signal in Alpha formats.

For assay [7] the target is unchanged. The assay can be described thus: AlphaScreen bead proximity, C3b-Acceptor beads pre-incubated with antibody, then biotinylated fB(D24G/N260D) and SA-Donor beads; blocked ligand: fB [A]. The protocol: as §1, §2
Assay [8] shares this target. The assay can be described thus: AlphaScreen bead proximity, C3b-Acceptor beads pre-incubated with antibody, then C3b-Donor beads; inhibition of C3b-C3b dimer formation; unit from the axis [Antibody] nM; value lies above the highest point shown (about 800 nM) [D]. As for the experimental part: as §1, §2
Assay [9] shares this target. The assay can be described thus: cell-based or functional assay. This is another data set of the same source.
In assay [10] the target is T3, cynomolgus complement C3b protein. The assay can be described thus: cell-based or functional assay.
For assay [11], the target named is T2, human C3d. The assay can be described thus: cross reactivity, ELISA on C3d, anti-His detection. As for the experimental part:
In order to determine whether the anti-C3b antibodies described herein can bind to complement pathway components iC3b and C3c, the following steps were performed: Directly add iC3b(complement Technologies A115), C3d (complement Technologies A117), or C3c (complement Technologies A116), at 2 μg/ml in Carbonate Buffer onto Coat Maxisorp plate Nunc (442404) at 100 μl per well. Seal plates and incubate at 4° C. overnight. Aspirate plates and wash 3 times with PBS/0.5% Tween 20. Block plates with Diluent (PBS, 4% BSA Fraction V (Fisher ICN16006980), 0.1% Tween 20 (Sigma P1379), 0.1% Triton X-100 (Sigma P234729)) and incubate for 2 h at room temperature or overnight at 4° C. Then wash plates once with PBS/0.5% Tween 20. Dilute Fabs at 100 nM and subsequent dilutions (or higher concentration if needed) in diluent and plate 100 μl per well. Incubate at room temperature for 1 h. Wash plates 3 times with PBS/0.5% Tween 20. Add 100 μl/well of anti-Histidine-HRP monoclonal detection antibody at 1:400 in diluent and incubate at room temperature for 1 h. Then wash 4 times with PBS/0.5% Tween 20. Add 100 μl of TMB substrate (Pierce 34028) and incubate at room temperature for up to 5 min. Add 50 μl of Stop solution (2N Sulfuric Acid) to each well and read plate at 450 nm and correct for plastic reading at 570 nm.

Assay [12] deals with T1, human complement C3b protein. The assay can be described thus: solution equilibrium titration (SET), ECL detection, Fab.
The target in assay [13] is T3, cynomolgus complement C3b protein. Described as above.
Assay [14] addresses T1, human complement C3b protein. Briefly: SPR (Biacore), C3b captured by anti-C3d antibody, Fab as analyte. In general terms: SPR reads the build-up and loss of mass on a sensor chip optically.
For assay [15], the target named is T3, cynomolgus complement C3b protein. Described as above.
Assay [16] addresses T1, human complement C3b protein. Briefly: bead proximity assay, C3b-acceptor beads; competitor fP-donor beads. As for the experimental part: as §2
Assay [17] shares this target. The assay can be described thus: bead proximity assay, C3b-acceptor beads; competitor biotinylated fH. As for the experimental part: as §2
For assay [18] the target is unchanged. Briefly: bead proximity assay, C3b-acceptor beads; competitor biotinylated fB(D24G/N260D). As for the experimental part: as §2
In a further assay the target is T4, human C5 (human, UniProt P01031 19-673; P01031 678-1676).
T4 construct: Captured by an anti-C5 antibody in the ELISA
T4 sequence (P01031 19-673 limits assumed, chain 1 of 2): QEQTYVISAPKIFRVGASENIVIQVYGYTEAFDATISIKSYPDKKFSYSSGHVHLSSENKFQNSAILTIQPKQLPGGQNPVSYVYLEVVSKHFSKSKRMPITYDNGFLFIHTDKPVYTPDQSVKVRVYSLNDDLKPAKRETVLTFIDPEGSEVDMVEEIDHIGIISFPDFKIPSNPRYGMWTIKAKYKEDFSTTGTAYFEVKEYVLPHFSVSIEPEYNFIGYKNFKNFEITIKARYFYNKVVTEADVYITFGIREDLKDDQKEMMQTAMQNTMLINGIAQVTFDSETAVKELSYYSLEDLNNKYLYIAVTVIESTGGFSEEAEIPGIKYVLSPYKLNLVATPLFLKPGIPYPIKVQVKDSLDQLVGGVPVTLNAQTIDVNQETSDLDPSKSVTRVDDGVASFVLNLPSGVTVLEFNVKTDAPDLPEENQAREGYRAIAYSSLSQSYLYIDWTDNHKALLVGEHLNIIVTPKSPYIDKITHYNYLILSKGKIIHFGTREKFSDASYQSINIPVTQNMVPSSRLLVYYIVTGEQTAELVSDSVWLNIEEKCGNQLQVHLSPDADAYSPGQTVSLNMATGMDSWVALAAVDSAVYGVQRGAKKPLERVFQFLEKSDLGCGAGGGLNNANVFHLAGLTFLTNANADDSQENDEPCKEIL
T4 sequence (P01031 678-1676 limits assumed, chain 2 of 2): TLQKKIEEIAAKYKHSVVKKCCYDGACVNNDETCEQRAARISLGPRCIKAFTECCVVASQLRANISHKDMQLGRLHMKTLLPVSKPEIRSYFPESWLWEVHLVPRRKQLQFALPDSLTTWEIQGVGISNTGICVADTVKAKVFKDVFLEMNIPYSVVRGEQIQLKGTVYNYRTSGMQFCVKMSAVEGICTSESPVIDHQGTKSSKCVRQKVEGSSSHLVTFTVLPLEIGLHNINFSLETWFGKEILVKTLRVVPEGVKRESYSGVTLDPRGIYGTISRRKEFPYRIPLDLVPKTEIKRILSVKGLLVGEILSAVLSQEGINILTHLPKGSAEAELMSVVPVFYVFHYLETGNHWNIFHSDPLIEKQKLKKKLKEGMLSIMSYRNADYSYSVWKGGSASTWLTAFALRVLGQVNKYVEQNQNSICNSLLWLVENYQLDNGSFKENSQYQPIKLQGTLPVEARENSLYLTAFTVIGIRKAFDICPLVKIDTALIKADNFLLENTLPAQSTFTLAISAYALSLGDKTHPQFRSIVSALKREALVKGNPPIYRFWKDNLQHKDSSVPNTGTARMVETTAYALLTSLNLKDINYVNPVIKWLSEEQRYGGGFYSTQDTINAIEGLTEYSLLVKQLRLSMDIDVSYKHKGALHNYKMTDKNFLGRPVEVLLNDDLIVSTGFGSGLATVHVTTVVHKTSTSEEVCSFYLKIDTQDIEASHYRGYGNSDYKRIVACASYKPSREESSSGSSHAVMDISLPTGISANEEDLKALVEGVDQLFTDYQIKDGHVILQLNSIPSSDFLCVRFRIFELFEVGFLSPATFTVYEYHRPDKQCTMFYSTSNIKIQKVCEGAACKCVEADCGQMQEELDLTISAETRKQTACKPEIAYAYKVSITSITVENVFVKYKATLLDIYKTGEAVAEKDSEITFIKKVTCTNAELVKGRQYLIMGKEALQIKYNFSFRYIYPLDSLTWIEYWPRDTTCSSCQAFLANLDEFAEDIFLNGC
The assay can be described thus: cross reactivity, capture ELISA with anti-C5 capture antibody, anti-His detection.

B1: MOR09675 IgG (antibody, V domains shown)
VH: EVQLVQSGAEVKKPGASVKVSCKASGYTFTGYYINWVRQAPGQGLEWMGIISPNQGTTGYAQKFQGRVTMTRDTSISTAYMELSSLRSEDTAVYYCARGNYDHLDYWGQGTLVTVSS
VL: DIQMTQSPSSLSASVGDRVTITCRASQGISNYLNWYQQKPGKAPKLLIYDASTLQSGVPSRFSGSGSGTDFTLTISSLQPEDFATYYCQQDWHTLPVTFGQGTKVEIKR
notes: Germlined human IgG1 with leucines 234 and 235 changed to alanines, kappa; also called antibody 9675
Turning to B1, in assay [1], the “MAC deposition on zymosan, IC50” value was not above 5 nM; the “hemolysis of rabbit red blood cells, 10% human or cynomolgus serum, IC50” value was not above 50 nM; the “inhibition of C3a and C5a generation during hemolysis, IC50” value is not above 50 nM. In assay [2], the “fold binding selectivity for C3b over C3” value is more than 1000 fold. In addition, in the assay with human C3d [3], the binding result was “no binding (tested: 100 nM)”. In assay [4], this molecule yielded a Kd of 0.00288 nM, a koff of 1.02e-06 s⁻¹ and a kon of 353000 M⁻¹ s⁻¹. In assay [5], this molecule yielded a Kd of 0.202 nM, a koff of 0.00029 s⁻¹ and a kon of 1.45e+06 M⁻¹ s⁻¹. For the same molecule, in assay [6], the “IC50 (read off the curve)” value is approximately 0.02 nM. The “IC50 (read off the curve)” value in [7] is approximately 0.05 nM. For the same molecule, the EC50 in assay [8] is 2360 nM.

B2: MOR09398 Fab (Fab, V domains shown)
VH: QVQLVESGGGLVQPGGSLRLSCAASGFTFSSYWMTWVRQAPGKGLEWVSSIKIKPDGYAASVKGRFTISRDNSKNTLYLQMNSLRAEDTAVYYCARLFYQYFARMDYWGQGTLVTVSS
VL: DIQMTQSPSSLSASVGDRVTITCRASQDISNYLNWYQQKPGKAPKLLIYAASNLQSGVPSRFSGSGSGTDFTLTISSLQPEDFATYYCQQWDSFSPTFGQGTKVEIKR
notes: also called Fab 9398
Turning to B2, in assay [9], the “C3b Dep (nM), human serum, IC50” value is 13 nM. In assay [9], the “HA (nM), 10% human serum, IC50” value was determined as 45 nM. The “MAC Dep (nM), human serum, IC50” value in assay [9] worked out at 1 nM. For the same molecule, the “C3b Dep (nM), cyno serum, IC50” value in assay [10] is 56 nM. For the same molecule, the “HA (nM), 10% cyno serum, IC50” value in assay [10] was 86 nM. In addition, the “MAC Dep (nM), cyno serum, IC50” value in assay [10] is 5 nM. Besides, the binding result with human C3d [11] and in the assay with human C5 was “no binding” in each case. The Kd in assay [12] is 0.004 nM; in assay [13], 0.1 nM; in assay [14] it was 0.003 nM; in [15] it was 0.092 nM. The IC50 stood at 300 nM in [16], 0.1 nM in assay [17] and 0.1 nM in assay [18].

B3: MOR09397 Fab (Fab, V domains shown)
VH: B2 VH
VL: B2 VL with W91H, S93T, S95R
notes: also called Fab 9397
As to B3, the “C3b Dep (nM), human serum, IC50” value in assay [9] was 13 nM. In addition, in [9], the “HA (nM), 10% human serum, IC50” value stood at 35 nM. For the same molecule, in [9], the “MAC Dep (nM), human serum, IC50” value was 1 nM. In addition, in assay [10], the “C3b Dep (nM), cyno serum, IC50” value came to 35 nM. Also, the “HA (nM), 10% cyno serum, IC50” value in assay [10] turned out to be 59 nM. For the same molecule, the “MAC Dep (nM), cyno serum, IC50” value in [10] came out at 7 nM. Moreover, the binding result with human C3d [11] and with human C5 was “no binding” each time. For the same molecule, the Kd in [12] came out at 0.002 nM; in assay [13], 0.12 nM; in assay [14], 0.007 nM; in assay [15], 0.089 nM. The IC50 in [16] stood at 300 nM; in assay [17], 0.1 nM; in assay [18], 0.1 nM.
